This note sets out measurements from paper PMC7515726.

Common to all, as to test: affinity purification with mass spectrometry
Assay [1] has as its target Nuc1, acidic patch mutant nucleosome (hH2A.Dx10), biotinylated 185 bp 601 DNA (human) (UniProt P62807).
The target of assay [2] is Nuc2, disk patch 2 mutant nucleosome (hH2A.Dx2, hH2B.Cx8), biotinylated 185 bp 601 DNA (human) (UniProt Q71DI3).
Assay [3] addresses Nuc3, disk patch 3 mutant nucleosome (hH3.2x10, hH4x24, hH2B.Cx9), biotinylated 185 bp 601 DNA (human) (UniProt P20671).

Sequence of RUVBL1 (P60122 whole entry): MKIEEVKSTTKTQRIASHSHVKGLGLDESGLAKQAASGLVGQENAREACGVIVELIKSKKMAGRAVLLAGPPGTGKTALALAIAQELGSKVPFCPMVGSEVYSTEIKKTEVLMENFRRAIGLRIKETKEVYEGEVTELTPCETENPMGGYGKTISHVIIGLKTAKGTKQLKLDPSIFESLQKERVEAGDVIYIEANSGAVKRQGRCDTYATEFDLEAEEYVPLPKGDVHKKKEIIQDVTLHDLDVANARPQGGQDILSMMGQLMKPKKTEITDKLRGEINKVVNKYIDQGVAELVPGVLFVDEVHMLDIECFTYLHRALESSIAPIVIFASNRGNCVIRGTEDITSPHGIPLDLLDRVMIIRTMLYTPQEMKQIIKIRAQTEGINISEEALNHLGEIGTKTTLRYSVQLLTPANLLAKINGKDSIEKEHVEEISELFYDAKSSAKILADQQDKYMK
Sequence of RNF2 (RING finger protein 2) (Q9CQJ4 whole entry): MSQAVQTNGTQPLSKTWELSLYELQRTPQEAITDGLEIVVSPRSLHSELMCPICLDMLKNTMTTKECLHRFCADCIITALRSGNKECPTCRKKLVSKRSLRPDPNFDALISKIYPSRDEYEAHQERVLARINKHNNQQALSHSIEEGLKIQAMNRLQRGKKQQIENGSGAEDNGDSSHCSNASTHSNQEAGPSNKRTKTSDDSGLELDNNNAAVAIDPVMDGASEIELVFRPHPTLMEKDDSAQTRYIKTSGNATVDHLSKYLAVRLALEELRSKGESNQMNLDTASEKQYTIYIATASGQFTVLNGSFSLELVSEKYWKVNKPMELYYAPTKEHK
Sequence of RUVBL2 (Q9WTM5 whole entry): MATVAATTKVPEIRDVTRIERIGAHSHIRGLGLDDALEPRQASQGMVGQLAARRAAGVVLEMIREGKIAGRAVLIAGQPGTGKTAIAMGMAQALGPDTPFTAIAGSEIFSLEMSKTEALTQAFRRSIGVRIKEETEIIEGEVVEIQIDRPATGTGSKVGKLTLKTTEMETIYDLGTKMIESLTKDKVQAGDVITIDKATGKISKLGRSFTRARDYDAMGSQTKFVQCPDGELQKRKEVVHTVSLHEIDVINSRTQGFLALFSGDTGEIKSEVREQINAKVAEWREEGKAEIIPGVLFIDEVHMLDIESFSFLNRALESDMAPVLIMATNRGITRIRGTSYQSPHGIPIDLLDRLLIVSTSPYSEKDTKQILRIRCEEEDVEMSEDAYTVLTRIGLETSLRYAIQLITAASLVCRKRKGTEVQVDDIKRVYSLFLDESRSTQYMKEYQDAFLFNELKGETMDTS

In assay [1], “DNMT1 DNA methyltransferase (from UniProt P13864 1-1620) (enzyme)” displayed a fold decrease in binding vs wild-type nucleosome of 1.72 fold.

Take “HMGN2 (high mobility group nucleosome-binding domain-containing protein 2) (from UniProt P09602 1-90) (natural protein)”: the values for the fold decrease in binding vs wild-type nucleosome in assay [1] and in assay [2] were 27 fold and 13 fold, respectively.

Consider “RNF2 (RING finger protein 2) (from UniProt Q9CQJ4 1-336) (natural protein)”, for which the fold decrease in binding vs wild-type nucleosome in assay [1] came to 1.5 fold.

Take “RUVBL1 (from UniProt P60122 1-456) (natural protein)”: the fold decrease in binding vs wild-type nucleosome in assay [3] is 1.33 fold.

“RUVBL2 (from UniProt Q9WTM5 1-463) (natural protein)” showed a fold decrease in binding vs wild-type nucleosome in assay [3] of 1.38 fold.

Substance “methylcytosine dioxygenase Tet1 (from UniProt Q3URK3 1-2039) (enzyme)” had a fold decrease in binding vs wild-type nucleosome in assay [1] of 1.8 fold.
